Assay results from article doi:10.1101/2020.12.02.408906 (bioRxiv, 2020).

B1: EccB5 of the ESX-5 type VII secretion system of M. tuberculosis H37Rv (natural protein)
chain: MAEESRGQRGSGYGLGLSTRTQVTGYQFLARRTAMALTRWRVRMEIEPGRRQTLAVVASVSAALVICLGALLWSFISPSGQLNESPIIADRDSGALYVRVGDRLYPALNLASARLITGRPDNPHLVRSSQIATMPRGPLVGIPGAPSSFSPKSPPASSWLVCDTVATSSSIGSLQGVTVTVIDGTPDLTGHRQILSGSDAVVLRYGGDAWVIREGRRSRIEPTNRAVLLPLGLTPEQVSQARPMSRALFDALPVGPELLVPEVPNAGGPATFPGAPGPIGTVIVTPQISGPQQYSLVLGDGVQTLPPLVAQILQNAGSAGNTKPLTVEPSTLAKMPVVNRLDLSAYPDNPLEVVDIREHPSTCWWWERTAGENRARVRVVSGPTIPVAATEMNKVVSLVKADTSGRQADQVYFGPDHANFVAVTGNNPGAQTSESLWWVTDAGARFGVEDSKEARDALGLTLTPSLAPWVALRLLPQGPTLSRADALVEHDTLPMDMTPAELVVPK
B2: EccD5 of the ESX-5 type VII secretion system of M. tuberculosis H37Rv (natural protein)
chain: MTAVADAPQADIEGVASPQAVVVGVMAGEGVQIGVLLDANAPVSVMTDPLLKVVNSRLRELGEAPLEATGRGRWALCLVDGAPLRATQSLTEQDVYDGDRLWIRFIADTERRSQVIEHISTAVASDLSKRFARIDPIVAVQVGASMVATGVVLATGVLGWWRWHHNTWLTTIYTAVIGVLVLAVAMLLLMRAKTDADRRVADIMLMSAIMPVTVAAAAAPPGPVGSPQAVLGFGVLTVAAALALRFTGRRLGIYTTIVIIGALTMLAALARMVAATSAVTLLSSLLLICVVAYHAAPALSRRLAGIRLPVFPSATSRWVFEARPDLPTTVVVSGGSAPVLEGPSSVRDVLLQAERARSFLSGLLTGLGVMVVVCMTSLCDPHTGQRWLPLILAGFTSGFLLLRGRSYVDRWQSITLAGTAVIIAAAVCVRYALELSSPLAVSIVAAILVLLPAAGMAAAAHVPHTIYSPLFRKFVEWIEYLCLMPIFPLALWLMNVYAAIRYR
B3: EccC5 ATPase of the ESX-5 type VII secretion system of M. tuberculosis H37Rv (natural protein)
chain: MKRGFARPTPEKPPVIKPENIVLSTPLSIPPPEGKPWWLIVVGVVVVGLLGGMVAMVFASGSHVFGGIGSIFPLFMMVGIMMMMFRGMGGGQQQMSRPKLDAMRAQFMLMLDMLRETAQESADSMDANYRWFHPAPNTLAAAVGSPRMWERKPDGKDLNFGVVRVGVGMTRPEVTWGEPQNMPTDIELEPVTGKALQEFGRYQSVVYNLPKMVSLLVEPWYALVGEREQVLGLMRAIICQLAFSHGPDHVQMIVVSSDLDQWDWVKWLPHFGDSRRHDAAGNARMVYTSVREFAAEQAELFAGRGSFTPRHASSSAQTPTPHTVIIADVDDPQWEYVISAEGVDGVTFFDLTGSSMWTDIPERKLQFDKTGVIEALPRDRDTWMVIDDKAWFFALTDQVSIAEAEEFAQKLAQWRLAEAYEEIGQRVAHIGARDILSYYGIDDPGNIDFDSLWASRTDTMGRSRLRAPFGNRSDNGELLFLDMKSLDEGGDGPHGVMSGTTGSGKSTLVRTVIESLMLSHPPEELQFVLADLKGGSAVKPFAGVPHVSRIITDLEEDQALMERFLDALWGEIARRKAICDSAGVDDAKEYNSVRARMRARGQDMAPLPMLVVVIDEFYEWFRIMPTAVDVLDSIGRQGRAYWIHLMMASQTIESRAEKLMENMGYRLVLKARTAGAAQAAGVPNAVNLPAQAGLGYFRKSLEDIIRFQAEFLWRDYFQPGVSIDGEEAPALVHSIDYIRPQLFTNSFTPLEVSVGGPDIEPVVAQPNGEVLESDDIEGGEDEDEEGVRTPKVGTVIIDQLRKIKFEPYRLWQPPLTQPVAIDDLVNRFLGRPWHKEYGSACNLVFPIGIIDRPYKHDQPPWTVDTSGPGANVLILGAGGSGKTTALQTLICSAALTHTPQQVQFYCLAYSSTALTTVSRIPHVGEVAGPTDPYGVRRTVAELLALVRERKRSFLECGIASMEMFRRRKFGGEAGPVPDDGFGDVYLVIDNYRALAEENEVLIEQVNVIINQGPSFGVHVVVTADRESELRPPVRSGFGSRIELRLAAVEDAKLVRSRFAKDVPVKPGRGMVAVNYVRLDSDPQAGLHTLVARPALGSTPDNVFECDSVVAAVSRLTSAQAPPVRRLPARFGVEQVRELASRDTRQGVGAGGIAWAISELDLAPVYLNFAENSHLMVTGRRECGRTTTLATIMSEIGRLYAPGASSAPPPAPGRPSAQVWLVDPRRQLLTALGSDYVERFAYNLDGVVAMMGELAAALAGREPPPGLSAEELLSRSWWSGPEIFLIVDDIQQLPPGFDSPLHKAVPFVNRAADVGLHVIVTRTFGGWSSAGSDPMLRALHQANAPLLVMDADPDEGFIRGKMKGGPLPRGRGLLMAEDTGVFVQVAATEVRR
B4: MycP5 protease (mycosin) of the ESX-5 type VII secretion system of M. tuberculosis H37Rv (enzyme)
chain: ISPPTIDPGALPPDGPPGPLAPMKQNAYCTEVGVLPGTDFQLQPKYMEMLNLNEAWQFGRGDGVKVAVIDTGVTPHPRLPRLIPGGDYVMAGGDGLSDCDAHGTLVASMIAAVPANGAVPLPSVPRRPVTIPTTETPPPPQTVTLSPVPPQTVTVIPAPPPEEGVPPGAPVPGPEPPPAPGPQPPAVDRGGGTVTVPSYSGGRKIAPIDNPRNPHPSAPSPALGPPPDAFSGIAPGVEIISIRQSSQAFGLKDPYTGDEDPQTAQKIDNVETMARAIVHAANMGASVINISDVMCMSARNVIDQRALGAAVHYAAVDKDAVIVAAAGDGSKKDCKQNPIFDPLQPDDPRAWNAVTTVVTPSWFHDYVLTVGAVDANGQPLSKMSIAGPWVSISAPGTDVVGLSPRDDGLINAIDGPDNSLLVPAGTSFSAAIVSGVAALVRAKFPELSAYQIINRLIHTARPPARGVDNQVGYGVVDPVAALTWDVPKGPAEPPKQLSAPLVVPQPPAPRDMVPIWVAAGGLAGALLIGGAVFGTATLMRRSRKQQ

Molecular target: the molecule itself
Assay: cryo-EM structure

Question: Which “stoichiometry N” value does the source give for B1 here?
Answer: 6

Question: Which “stoichiometry N” value does the source give for B2 here?
Answer: 2

Question: How did the “stoichiometry N” value turn out when B3 was run?
Answer: 2

Question: How did the “stoichiometry N” value turn out when B4 was run?
Answer: 3
